Laboratory results from patent US20220249653A1.

Target: CD40L (human) (UniProt P29965)
Assay: cell-based or functional assay

Chain of UniProt P29965 (P29965 whole entry): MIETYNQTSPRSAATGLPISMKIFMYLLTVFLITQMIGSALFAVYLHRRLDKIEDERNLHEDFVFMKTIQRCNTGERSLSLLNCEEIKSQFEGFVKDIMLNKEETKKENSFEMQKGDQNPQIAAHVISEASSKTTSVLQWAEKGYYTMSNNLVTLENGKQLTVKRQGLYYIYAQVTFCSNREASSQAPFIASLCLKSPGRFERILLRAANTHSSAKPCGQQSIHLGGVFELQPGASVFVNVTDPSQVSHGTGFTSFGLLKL

Substance “CD40L blocking antibody (clone MK13A4; Enzo Life Sciences Cat #ALX-805-037-C100)” has an abrogation of intracellular p24 expression of 90.8%, an inhibition of CD4 downregulation (flow cytometry of MDC1/SEB-activated CD4+ T cells) of 87.7% and a reduction in HIV-1 RNA content in the day 7 co-culture supernatants measured by qRT-PCR of 94.1%.
